Test results from US20120014998A1.

Target: GroEL (E. coli Cpn60) (E. coli) (UniProt P0A6F5)
Assay: cell-based or functional assay

Chain of GroEL (E. coli Cpn60) (E. coli) (P0A6F5 2-548 limits assumed): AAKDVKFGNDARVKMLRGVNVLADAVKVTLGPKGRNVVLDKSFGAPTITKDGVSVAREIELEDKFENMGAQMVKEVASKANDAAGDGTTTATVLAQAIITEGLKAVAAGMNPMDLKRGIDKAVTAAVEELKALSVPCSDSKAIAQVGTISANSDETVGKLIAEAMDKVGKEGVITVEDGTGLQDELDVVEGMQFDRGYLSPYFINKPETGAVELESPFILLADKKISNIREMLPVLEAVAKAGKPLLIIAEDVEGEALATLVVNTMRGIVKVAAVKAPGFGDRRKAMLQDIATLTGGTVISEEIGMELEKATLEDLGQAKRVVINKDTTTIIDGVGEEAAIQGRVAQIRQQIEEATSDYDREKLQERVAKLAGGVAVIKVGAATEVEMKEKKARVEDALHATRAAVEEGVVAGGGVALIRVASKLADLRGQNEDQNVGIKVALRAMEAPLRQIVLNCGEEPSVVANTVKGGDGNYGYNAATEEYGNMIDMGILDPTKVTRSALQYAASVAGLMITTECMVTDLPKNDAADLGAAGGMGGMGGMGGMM
Chain of X-Cpn10 (i.e. non-acetylated) (P61604 2-102 limits assumed): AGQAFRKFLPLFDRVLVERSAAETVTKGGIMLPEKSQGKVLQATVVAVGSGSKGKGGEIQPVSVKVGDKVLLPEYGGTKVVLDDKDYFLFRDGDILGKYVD
Chain of Gly-Cpn10 (P61604 other isoform, or with tags, fused parts or gaps limits assumed): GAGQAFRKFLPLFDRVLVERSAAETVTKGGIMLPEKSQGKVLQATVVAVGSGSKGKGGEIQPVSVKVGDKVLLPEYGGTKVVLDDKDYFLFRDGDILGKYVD
Chain of Ala-Cpn10-cHis (P61604 other isoform, or with tags, fused parts or gaps limits assumed): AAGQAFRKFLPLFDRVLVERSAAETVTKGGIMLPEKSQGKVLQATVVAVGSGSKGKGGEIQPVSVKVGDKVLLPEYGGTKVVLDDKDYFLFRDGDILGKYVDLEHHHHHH
Chain of Ala-Cpn10 (Wild type Cpn10) (P61604 other isoform, or with tags, fused parts or gaps limits assumed): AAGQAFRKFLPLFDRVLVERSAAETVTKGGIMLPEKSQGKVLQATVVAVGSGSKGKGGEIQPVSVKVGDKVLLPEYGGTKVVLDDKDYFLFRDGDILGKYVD

Row | Substance | Refolding activity (% of Ala-Cpn10) (% of Ala-Cpn10)
1 | Ala-Cpn10 (Wild type Cpn10) (from UniProt P61604 2-102) | 100
2 | Ala-Cpn10-cHis (from UniProt P61604 2-102) | 40
3 | Cpn10-NtermES (from UniProt P61604 11-102) | 12
4 | Gly-Cpn10 (from UniProt P61604 2-102) | 107
5 | X-Cpn10 (i.e. non-acetylated) (from UniProt P61604 2-102) | 105
